Laboratory results reported in paper PMC11921806, “Structural characterization and inhibition of the interaction between ch-TOG and TACC3” (The Journal of Cell Biology, 2025).

Assays:
TACC3 629–838 [1] = biological target: T1, TACC3 629–838 (human, UniProt Q9Y6A5 629-838); test: MST; NHS Red labelled TACC domain at 600 nM, H5 peptide 0–400 μM; 20 mM sodium phosphate, 50 mM NaCl, 2 mM DTT, 0.05% Tween, 0.02% NaN3; one-site specific binding model; details: both partners purified
T1 construct: human TACC3, TACC domain, residues 629-838; For MST the protein was fluorescently labelled via NHS coupling (NHS Red labelling kit, Nanotemper); Construct from Hood et al., 2013; also called TACC3 TACC domain; TACC3 TD; not shown: His, N-terminal, cleaved; NusA, N-terminal, cleaved

[2] = biological target: the molecule itself; test: EPR (CW EPR and DEER); MTSL-labelled TACC3 proteins, 50 μM with 30% glycerol; CW EPR at 120 K, four-pulse DEER at 50 K
ch-TOG 1517–1957 = biological target: T2, ch-TOG 1517–1957 (human, UniProt Q14008 1517-1957); test: pull-down; in vitro co-precipitation; C-terminal His-tagged Affimers immobilised on Nickel Sepharose, incubated with TACC3 629–838 ∆699–765, ch-TOG 1517–1957 added; details: both partners purified
T2 construct: Construct from Hood et al., 2013; also called C-terminal domain of ch-TOG; not shown: His, N-terminal, cleaved; NusA, N-terminal, cleaved

TACC3 629–838 [3] = biological target: T1, TACC3 629–838; test: pull-down; in vitro co-precipitation; His-NusA-ch-TOG 1817–1957 constructs immobilised on Nickel Sepharose, TACC3 629–838 added; binding of TACC3 resolved by western blot; details: both partners purified

B1: synthetic ch-TOG H5 peptide (residues 1929–1947) (peptide)
peptide: EVGPSVYLERLKILRQRCG
notes: human ch-TOG/CKAP5 helix H5, residues 1929-1947; source: synthetic peptide
- Kd (TACC3 629–838 [1]): 17.3 µM

B2: TACC3 MTSL-C662 (domain or fragment)
chain: not shown
modifications: MTSL spin label on C662
notes: human TACC3 residues 629-838 with C749A and C828A; also called TACC3 629–838 C749A, C828A; source: E. coli BL21(DE3)RIL, purified, MTSL-labelled, SEC; not shown: His, N-terminal, cleaved; NusA, N-terminal, cleaved
- binding result [2]: binds

B3: TACC3 629–838 ∆699–765 (domain or fragment)
chain: not shown
notes: human TACC3 residues 629-838 with residues 699-765 deleted; A version with a C-terminal biotinylated Avi-tag was used for Affimer panning and ELISA; also called TACC3 TD∆; not shown: His, N-terminal, cleaved; NusA, N-terminal, cleaved
- binding result (ch-TOG 1517–1957): binds

B4: His-NusA-ch-TOG 1817–1957 (domain or fragment)
chain: ASRIDEKSSKAKVNDFLAEIFKKIGSKENTKEGLAELYEYKKKYSDADIEPFLKNSSQFFQSYVERGLRVIEMEREGKGRISTSTGISPQMEVTCVPTPTSTVSSIGNTNGEEVGPSVYLERLKILRQRCGLDNTKQDDRP
notes: not shown: His, N-terminal, kept; NusA, N-terminal, kept
- binding result (TACC3 629–838 [3]): binds
